Experimental data as given in patent US20060286584A1 (University of Texas, published 2006).

How the values were obtained:
[1] = tested on: T1, GST-Yki fusion protein (GST with full length Yki)
T1 sequence: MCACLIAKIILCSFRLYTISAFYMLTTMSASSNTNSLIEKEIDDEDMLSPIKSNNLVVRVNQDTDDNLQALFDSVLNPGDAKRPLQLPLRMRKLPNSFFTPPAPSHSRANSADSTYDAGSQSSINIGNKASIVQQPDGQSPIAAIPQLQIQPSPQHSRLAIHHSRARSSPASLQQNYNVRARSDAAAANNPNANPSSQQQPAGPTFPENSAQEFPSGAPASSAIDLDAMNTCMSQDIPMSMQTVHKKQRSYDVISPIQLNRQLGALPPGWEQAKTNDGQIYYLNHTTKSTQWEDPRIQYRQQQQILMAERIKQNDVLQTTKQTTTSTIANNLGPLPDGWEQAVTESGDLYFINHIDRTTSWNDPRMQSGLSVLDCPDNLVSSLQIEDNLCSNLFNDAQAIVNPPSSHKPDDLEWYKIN

[2] = biological target: GST-Tsc1 fusion (control substrate) [GST: P08515]
[3] = biological target: T2, GST-Yki fusion protein (GST with full length Yki)
T2 chain: T1 sequence

V5-tagged Wts (Warts) = biological target: T3, V5-tagged Wts (Warts) (Drosophila, UniProt Q9VA38 1-1; Q9VA38 2-1105); test: co-immunoprecipitation from S2 cells (anti-HA IP, anti-V5 blot)
T3 construct: Expressed in S2 cells; in the kinase assay it was immunoprecipitated with anti-V5, alone or after co-expression with Hpo-Sav; also called Lats
T3 sequence: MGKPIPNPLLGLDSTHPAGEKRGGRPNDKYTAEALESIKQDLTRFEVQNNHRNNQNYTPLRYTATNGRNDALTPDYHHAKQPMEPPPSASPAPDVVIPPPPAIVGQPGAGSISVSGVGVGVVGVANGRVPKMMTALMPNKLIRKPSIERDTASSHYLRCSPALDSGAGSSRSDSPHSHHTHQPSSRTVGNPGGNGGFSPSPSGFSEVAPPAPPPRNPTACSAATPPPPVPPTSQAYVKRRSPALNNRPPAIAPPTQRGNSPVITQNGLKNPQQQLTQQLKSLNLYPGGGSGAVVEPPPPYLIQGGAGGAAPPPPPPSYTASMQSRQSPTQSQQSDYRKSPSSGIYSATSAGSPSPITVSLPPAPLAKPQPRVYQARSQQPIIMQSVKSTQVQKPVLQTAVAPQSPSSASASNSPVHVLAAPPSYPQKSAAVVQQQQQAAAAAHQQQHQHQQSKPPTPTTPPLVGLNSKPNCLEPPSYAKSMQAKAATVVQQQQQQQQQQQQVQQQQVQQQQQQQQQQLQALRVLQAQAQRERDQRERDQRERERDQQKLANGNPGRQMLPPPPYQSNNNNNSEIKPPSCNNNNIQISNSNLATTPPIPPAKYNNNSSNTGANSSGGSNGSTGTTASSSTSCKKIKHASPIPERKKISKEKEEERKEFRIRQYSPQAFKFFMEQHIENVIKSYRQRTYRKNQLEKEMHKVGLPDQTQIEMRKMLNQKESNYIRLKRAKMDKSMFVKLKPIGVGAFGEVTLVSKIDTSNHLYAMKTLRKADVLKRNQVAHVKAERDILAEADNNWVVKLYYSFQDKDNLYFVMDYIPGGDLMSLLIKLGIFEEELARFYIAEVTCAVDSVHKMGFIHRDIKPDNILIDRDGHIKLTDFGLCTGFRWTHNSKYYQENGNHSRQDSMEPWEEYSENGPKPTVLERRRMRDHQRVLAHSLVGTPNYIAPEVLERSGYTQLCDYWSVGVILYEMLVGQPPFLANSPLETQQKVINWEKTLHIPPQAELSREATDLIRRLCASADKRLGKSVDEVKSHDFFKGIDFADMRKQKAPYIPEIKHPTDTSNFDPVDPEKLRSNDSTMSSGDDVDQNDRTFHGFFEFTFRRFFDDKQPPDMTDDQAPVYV
From the text: HA-tagged wildtype Yki (Yki, lane 1), a mutant Yki carrying point mutations in the WW domains (Yki^{W292A P295A W361A P364A}, abbreviated as Yki^WM in lane 2), or a truncated Yki containing only the N-terminal half of the protein (Yki^N, lane 3) were co-expressed with V5-tagged Wts. α-HA immunoprecipitates were probed with and α-V5 antibody to detect physical interaction between the Yki variants and Wts. Note that wildtype Yki, but not Yki^WM or Yki^N, could immunoprecipitate Wts.
HA-tagged Yki was constructed by adding a C-terminal HA epitope ([…]) to Yki using the pAc5.1/V5-HisB vector (Invitrogen). N-terminal V5-tagged Wts was constructed in the same vector by adding a V5 tag ([…]) between the first and second codon of Wts. Point mutations of Yki and Wts were introduced using the QuikChange site-directed mutagenesis kit (Stratagene). Myc-tagged Hpo and Flag-tagged Sav constructs have been described previously (Wu et al., 2003). The pGEX4T-1 vector was used to express a fusion of GST with full length Yki the GST-Yki preparation contained two Yki-related bands, with the upper band migrating at the expected molecular weight. It also contained a contaminating band (FIG. 6C). The Yki-related bands, but not the contaminating band, were diminished by thrombin, which cleaves the GST-Yki fusion at the junction of GST and Yki (data not shown). […]

GST-Tsc1 fusion (control substrate) [GST: P08515], sequence (P08515 whole entry, looked up, the tested form may be a part): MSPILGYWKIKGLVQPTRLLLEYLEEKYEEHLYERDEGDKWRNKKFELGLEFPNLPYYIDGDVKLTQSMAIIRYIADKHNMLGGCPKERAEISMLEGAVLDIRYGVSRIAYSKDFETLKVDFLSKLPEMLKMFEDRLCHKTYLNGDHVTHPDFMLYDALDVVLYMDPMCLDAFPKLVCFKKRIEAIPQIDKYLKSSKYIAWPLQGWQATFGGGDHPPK

V5-tagged kinase-dead Wts^K743R
in vitro kinase activity (32P), kinase-dead Wts co-expressed with Hpo-Sav and immunoprecipitated [1]: a kinase dead mutation of Wts, WtsK^743R, completely abolished the in vitro kinase activity of Wts towards Yki

B1: V5-tagged Wts (Warts) (protein)
chain: T3 sequence
in vitro kinase activity (32P), Wts co-expressed with Hpo-Sav and immunoprecipitated [2]: Wts displayed specific kinase activity towards Yki (FIG. 6C, lane 2) but not a control substrate (FIG. 6C, lane 4)
in vitro kinase activity (32P), Wts co-expressed with Hpo-Sav and immunoprecipitated [3]: When co-expressed with Hpo-Sav, however, Wts displayed specific kinase activity towards Yki

B2: HA-tagged Yki^W292A P295A W361A P364A (other)
chain: MCACLIAKIILCSFRLYTISAFYMLTTMSASSNTNSLIEKEIDDEDMLSPIKSNNLVVRVNQDTDDNLQALFDSVLNPGDAKRPLQLPLRMRKLPNSFFTPPAPSHSRANSADSTYDAGSQSSINIGNKASIVQQPDGQSPIAAIPQLQIQPSPQHSRLAIHHSRARSSPASLQQNYNVRARSDAAAANNPNANPSSQQQPAGPTFPENSAQEFPSGAPASSAIDLDAMNTCMSQDIPMSMQTVHKKQRSYDVISPIQLNRQLGALPPGWEQAKTNDGQIYYLNHTTKSTQAEDARIQYRQQQQILMAERIKQNDVLQTTKQTTTSTIANNLGPLPDGWEQAVTESGDLYFINHIDRTTSANDARMQSGLSVLDCPDNLVSSLQIEDNLCSNLFNDAQAIVNPPSSHKPDDLEWYKINYPYDVPDYA
notes: Expressed in S2 cells; also called Yki^WM; mutant Yki carrying point mutations in the WW domains
binding result (V5-tagged Wts (Warts)): no binding
